From US20230212549A1 (3B PHARMACEUTICALS, published 2023)
Numbered stars: 1 amine (or outer) side, 2 acyl side, 3 side chain; on linkers, the order of the positions; unused ones are H or OH. Bridge positions count the residues as written; N and C are the ends. Square brackets hold non-standard residues; d marks the D form. Primed or numbered codes have the meaning given here. * marks the point of attachment. Ttds″ = 1,13-diamino-4,7,10-trioxatridecan-succinamic acid spacer, O=C(CCC(=O)[*:2])NCCCOCCOCCOCCCN[*:1]; DOTA = O=C(O)CN1CCN(CC(=O)O)CCN(CC(=O)*)CCN(CC(=O)O)CC1; mXylylene = c1cc(C[*:1])cc(C[*:2])c1; NMeF = CN[C@@H](Cc1ccccc1)C(=O)O; αMeF = C[C@](N)(Cc1ccccc1)C(=O)O; 4Pal = N[C@@H](Cc1ccncc1)C(=O)O; 2Thi = N[C@@H](Cc1cccs1)C(=O)O; Aic = NC1(C(=O)O)Cc2ccccc2C1; Hexanoyl = CCCCCC(=O)*

What was measured:
[1] = target: T1, fibroblast activation protein (FAP) on FAP-expressing human WI-38 fibroblasts (human, UniProt Q12884 1-760); assay: competitive FACS, WI-38 cells, vs Cy5 tracer m3; A = pIC50 >8.0
T1 construct: also called human FAP

[2] = target: Recombinant human FAP (R&D systems, #3715-SE) (human, UniProt Q12884 26-760); assay: cell-based or functional assay

Binder	pIC50 Category (FACS) [1]	pIC50 Category (Activity) [2]
Ac-MCPPTEFCDH[Aic]RD-NH2 (linker 2-8 via mXylylene; SMILES CSCC[C@H](NC(C)=O)C(=O)N[C@H]1CSCc2cccc(c2)CSC[C@@H](C(=O)N[C@@H](CC(=O)O)C(=O)N[C@@H](Cc2c[nH]cn2)C(=O)NC2(C(=O)N[C@@H](CCCNC(=N)N)C(=O)N[C@@H](CC(=O)O)C(N)=O)Cc3ccccc3C2)NC(=O)[C@H](Cc2ccccc2)NC(=O)[C@H](CCC(=O)O)NC(=O)[C@H]([C@@H](C)O)NC(=O)[C@@H]2CCCN2C(=O)[C@@H]2CCCN2C1=O, also called 3BP-3190) [Ac-Met-[Cys(3MeBn)-Pro-Pro-Thr-Glu-Phe-Cys]-Asp-His-Aic-Arg-Asp-NH2]	> 8 pIC50	> 8 pIC50
Ac-MCPPTEFCDHFR-NH2 (linker 2-8 via mXylylene; SMILES CSCC[C@H](NC(C)=O)C(=O)N[C@H]1CSCc2cccc(c2)CSC[C@@H](C(=O)N[C@@H](CC(=O)O)C(=O)N[C@@H](Cc2c[nH]cn2)C(=O)N[C@@H](Cc2ccccc2)C(=O)N[C@@H](CCCNC(=N)N)C(N)=O)NC(=O)[C@H](Cc2ccccc2)NC(=O)[C@H](CCC(=O)O)NC(=O)[C@H]([C@@H](C)O)NC(=O)[C@@H]2CCCN2C(=O)[C@@H]2CCCN2C1=O, also called 3BP-3200) [Ac-Met-[Cys(3MeBn)-Pro-Pro-Thr-Glu-Phe-Cys]-Asp-His-Phe-Arg-NH2]	> 8 pIC50	> 8 pIC50
Ac-MCPPTEFCDH[4Pal]RD-NH2 (linker 2-8 via mXylylene, also called 3BP-3191) [Ac-Met-[Cys(3MeBn)-Pro-Pro-Thr-Glu-Phe-Cys]-Asp-His-Ppa-Arg-Asp-NH2]	> 8 pIC50	> 8 pIC50
Hexanoyl-CPPTEFCDR-NH2 (linker 1-7 via mXylylene; SMILES CCCCCC(=O)N[C@H]1CSCc2cccc(c2)CSC[C@@H](C(=O)N[C@@H](CC(=O)O)C(=O)N[C@@H](CCCNC(=N)N)C(N)=O)NC(=O)[C@H](Cc2ccccc2)NC(=O)[C@H](CCC(=O)O)NC(=O)[C@H]([C@@H](C)O)NC(=O)[C@@H]2CCCN2C(=O)[C@@H]2CCCN2C1=O, also called 3BP-3299) [Hex-[Cys(3MeBn)-Pro-Pro-Thr-Glu-Phe-Cys]-Asp-Arg-NH2]	> 8 pIC50	> 8 pIC50
Ac-MCPPTEFCD[dH]FRD-NH2 (linker 2-8 via mXylylene; SMILES CSCC[C@H](NC(C)=O)C(=O)N[C@H]1CSCc2cccc(c2)CSC[C@@H](C(=O)N[C@@H](CC(=O)O)C(=O)N[C@H](Cc2c[nH]cn2)C(=O)N[C@@H](Cc2ccccc2)C(=O)N[C@@H](CCCNC(=N)N)C(=O)N[C@@H](CC(=O)O)C(N)=O)NC(=O)[C@H](Cc2ccccc2)NC(=O)[C@H](CCC(=O)O)NC(=O)[C@H]([C@@H](C)O)NC(=O)[C@@H]2CCCN2C(=O)[C@@H]2CCCN2C1=O, also called 3BP-3210) [Ac-Met-[Cys(3MeBn)-Pro-Pro-Thr-Glu-Phe-Cys]-Asp-his-Phe-Arg-Asp-NH2]	> 8 pIC50	> 8 pIC50
Hexanoyl-CPPTEFCDH[4Pal][dR][Ttds″]K(DOTA)-NH2 (linker 1-7 via mXylylene; SMILES CCCCCC(=O)N[C@H]1CSCc2cccc(c2)CSC[C@@H](C(=O)N[C@@H](CC(=O)O)C(=O)N[C@@H](Cc2c[nH]cn2)C(=O)N[C@@H](Cc2ccncc2)C(=O)N[C@H](CCCNC(=N)N)C(=O)NCCCOCCOCCOCCCNC(=O)CCC(=O)N[C@@H](CCCCNC(=O)CN2CCN(CC(=O)O)CCN(CC(=O)O)CCN(CC(=O)O)CC2)C(N)=O)NC(=O)[C@H](Cc2ccccc2)NC(=O)[C@H](CCC(=O)O)NC(=O)[C@H]([C@@H](C)O)NC(=O)[C@@H]2CCCN2C(=O)[C@@H]2CCCN2C1=O, also called 3BP-3277) [Hex-[Cys(3MeBn)-Pro-Pro-Thr-Glu-Phe-Cys]-Asp-His-Ppa-arg-Ttds-Lys(DOTA)-NH2]	> 8 pIC50	> 8 pIC50
Ac-MCPPTEFCDHXRD-NH2 (linker 2-8 via mXylylene; not fully specified (residue 11); printed as Ac-Met-[Cys(3MeBn)-Pro-Pro-Thr-Glu-Phe-Cys]-Asp-His-Mpa-Arg-Asp-NH2, also called 3BP-3192) [Ac-Met-[Cys(3MeBn)-Pro-Pro-Thr-Glu-Phe-Cys]-Asp-His-Mpa-Arg-Asp-NH2]	> 8 pIC50	> 8 pIC50
Ac-MCPPTEFCDH[αMeF]RD-NH2 (linker 2-8 via mXylylene; SMILES CSCC[C@H](NC(C)=O)C(=O)N[C@H]1CSCc2cccc(c2)CSC[C@@H](C(=O)N[C@@H](CC(=O)O)C(=O)N[C@@H](Cc2c[nH]cn2)C(=O)N[C@@](C)(Cc2ccccc2)C(=O)N[C@@H](CCCNC(=N)N)C(=O)N[C@@H](CC(=O)O)C(N)=O)NC(=O)[C@H](Cc2ccccc2)NC(=O)[C@H](CCC(=O)O)NC(=O)[C@H]([C@@H](C)O)NC(=O)[C@@H]2CCCN2C(=O)[C@@H]2CCCN2C1=O, also called 3BP-3203) [Ac-Met-[Cys(3MeBn)-Pro-Pro-Thr-Glu-Phe-Cys]-Asp-His-Amf-Arg-Asp-NH2]	> 8 pIC50	> 8 pIC50
Hexanoyl-CPPTEFCDH[dF]R[Ttds″]K(DOTA)-NH2 (linker 1-7 via mXylylene; SMILES CCCCCC(=O)N[C@H]1CSCc2cccc(c2)CSC[C@@H](C(=O)N[C@@H](CC(=O)O)C(=O)N[C@@H](Cc2c[nH]cn2)C(=O)N[C@H](Cc2ccccc2)C(=O)N[C@@H](CCCNC(=N)N)C(=O)NCCCOCCOCCOCCCNC(=O)CCC(=O)N[C@@H](CCCCNC(=O)CN2CCN(CC(=O)O)CCN(CC(=O)O)CCN(CC(=O)O)CC2)C(N)=O)NC(=O)[C@H](Cc2ccccc2)NC(=O)[C@H](CCC(=O)O)NC(=O)[C@H]([C@@H](C)O)NC(=O)[C@@H]2CCCN2C(=O)[C@@H]2CCCN2C1=O, also called 3BP-3276) [Hex-[Cys(3MeBn)-Pro-Pro-Thr-Glu-Phe-Cys]-Asp-His-phe-Arg-Ttds-Lys(DOTA)-NH2]	> 8 pIC50	> 8 pIC50
Hexanoyl-CPPTEFCDH[NMeF]R[Ttds″]K(DOTA)-NH2 (linker 1-7 via mXylylene; SMILES CCCCCC(=O)N[C@H]1CSCc2cccc(c2)CSC[C@@H](C(=O)N[C@@H](CC(=O)O)C(=O)N[C@@H](Cc2c[nH]cn2)C(=O)N(C)[C@@H](Cc2ccccc2)C(=O)N[C@@H](CCCNC(=N)N)C(=O)NCCCOCCOCCOCCCNC(=O)CCC(=O)N[C@@H](CCCCNC(=O)CN2CCN(CC(=O)O)CCN(CC(=O)O)CCN(CC(=O)O)CC2)C(N)=O)NC(=O)[C@H](Cc2ccccc2)NC(=O)[C@H](CCC(=O)O)NC(=O)[C@H]([C@@H](C)O)NC(=O)[C@@H]2CCCN2C(=O)[C@@H]2CCCN2C1=O, also called 3BP-3275) [Hex-[Cys(3MeBn)-Pro-Pro-Thr-Glu-Phe-Cys]-Asp-His-Nmf-Arg-Ttds-Lys(DOTA)-NH2]	> 8 pIC50	> 8 pIC50
Ac-MCPPTE[2Thi]CDHFRD-NH2 (linker 2-8 via mXylylene; SMILES CSCC[C@H](NC(C)=O)C(=O)N[C@H]1CSCc2cccc(c2)CSC[C@@H](C(=O)N[C@@H](CC(=O)O)C(=O)N[C@@H](Cc2c[nH]cn2)C(=O)N[C@@H](Cc2ccccc2)C(=O)N[C@@H](CCCNC(=N)N)C(=O)N[C@@H](CC(=O)O)C(N)=O)NC(=O)[C@H](Cc2cccs2)NC(=O)[C@H](CCC(=O)O)NC(=O)[C@H]([C@@H](C)O)NC(=O)[C@@H]2CCCN2C(=O)[C@@H]2CCCN2C1=O, also called 3BP-3193) [Ac-Met-[Cys(3MeBn)-Pro-Pro-Thr-Glu-Thi-Cys]-Asp-His-Phe-Arg-Asp-NH2]	> 8 pIC50	> 8 pIC50
Ac-MCPPTEFCDH[dF]RD-NH2 (linker 2-8 via mXylylene; SMILES CSCC[C@H](NC(C)=O)C(=O)N[C@H]1CSCc2cccc(c2)CSC[C@@H](C(=O)N[C@@H](CC(=O)O)C(=O)N[C@@H](Cc2c[nH]cn2)C(=O)N[C@H](Cc2ccccc2)C(=O)N[C@@H](CCCNC(=N)N)C(=O)N[C@@H](CC(=O)O)C(N)=O)NC(=O)[C@H](Cc2ccccc2)NC(=O)[C@H](CCC(=O)O)NC(=O)[C@H]([C@@H](C)O)NC(=O)[C@@H]2CCCN2C(=O)[C@@H]2CCCN2C1=O, also called 3BP-3211) [Ac-Met-[Cys(3MeBn)-Pro-Pro-Thr-Glu-Phe-Cys]-Asp-His-phe-Arg-Asp-NH2]	> 8 pIC50	> 8 pIC50
Ac-MCPPTEFCDHF[dR]D-NH2 (linker 2-8 via mXylylene; SMILES CSCC[C@H](NC(C)=O)C(=O)N[C@H]1CSCc2cccc(c2)CSC[C@@H](C(=O)N[C@@H](CC(=O)O)C(=O)N[C@@H](Cc2c[nH]cn2)C(=O)N[C@@H](Cc2ccccc2)C(=O)N[C@H](CCCNC(=N)N)C(=O)N[C@@H](CC(=O)O)C(N)=O)NC(=O)[C@H](Cc2ccccc2)NC(=O)[C@H](CCC(=O)O)NC(=O)[C@H]([C@@H](C)O)NC(=O)[C@@H]2CCCN2C(=O)[C@@H]2CCCN2C1=O, also called 3BP-3212) [Ac-Met-[Cys(3MeBn)-Pro-Pro-Thr-Glu-Phe-Cys]-Asp-His-Phe-arg-Asp-NH2]	> 8 pIC50	> 8 pIC50
Ac-CPPTEFCDHFRD-NH2 (linker 1-7 via mXylylene; SMILES CC(=O)N[C@H]1CSCc2cccc(c2)CSC[C@@H](C(=O)N[C@@H](CC(=O)O)C(=O)N[C@@H](Cc2c[nH]cn2)C(=O)N[C@@H](Cc2ccccc2)C(=O)N[C@@H](CCCNC(=N)N)C(=O)N[C@@H](CC(=O)O)C(N)=O)NC(=O)[C@H](Cc2ccccc2)NC(=O)[C@H](CCC(=O)O)NC(=O)[C@H]([C@@H](C)O)NC(=O)[C@@H]2CCCN2C(=O)[C@@H]2CCCN2C1=O, also called 3BP-3202) [Ac-[Cys(3MeBn)-Pro-Pro-Thr-Glu-Phe-Cys]-Asp-His-Phe-Arg-Asp-NH2]	> 8 pIC50	> 8 pIC50
Ac-MCPPTEFCDHFR[dD]-NH2 (linker 2-8 via mXylylene; SMILES CSCC[C@H](NC(C)=O)C(=O)N[C@H]1CSCc2cccc(c2)CSC[C@@H](C(=O)N[C@@H](CC(=O)O)C(=O)N[C@@H](Cc2c[nH]cn2)C(=O)N[C@@H](Cc2ccccc2)C(=O)N[C@@H](CCCNC(=N)N)C(=O)N[C@H](CC(=O)O)C(N)=O)NC(=O)[C@H](Cc2ccccc2)NC(=O)[C@H](CCC(=O)O)NC(=O)[C@H]([C@@H](C)O)NC(=O)[C@@H]2CCCN2C(=O)[C@@H]2CCCN2C1=O, also called 3BP-3213) [Ac-Met-[Cys(3MeBn)-Pro-Pro-Thr-Glu-Phe-Cys]-Asp-His-Phe-Arg-asp-NH2]	> 8 pIC50	> 8 pIC50
